Values quoted from earlier work, collected in PMC2846219.
Read-outs that look alike come from different tables or passages of the source.

What was measured:
PCNA (Homo sapiens) [1] = target: PCNA (Homo sapiens) (UniProt P12004)
PCNA (Homo sapiens) [2] = target: PCNA (Homo sapiens) (UniProt P12004); remark: listed apart in the source

Chain of UniProt P12004 (P12004 whole entry): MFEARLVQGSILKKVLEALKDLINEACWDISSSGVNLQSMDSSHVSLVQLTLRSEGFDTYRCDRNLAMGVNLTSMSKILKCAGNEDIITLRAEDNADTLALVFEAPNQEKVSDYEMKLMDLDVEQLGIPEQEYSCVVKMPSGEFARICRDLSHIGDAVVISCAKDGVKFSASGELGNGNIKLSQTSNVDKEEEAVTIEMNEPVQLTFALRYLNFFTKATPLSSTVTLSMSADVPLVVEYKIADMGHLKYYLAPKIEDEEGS

Row | Substance | Kd (PCNA (Homo sapiens) [1]) | Kd (PCNA (Homo sapiens) [2])
1 | DNA polymerase eta PIP peptide PIP peptide (from UniProt Q9Y253) | 400 nM | 
2 | DNA polymerase iota PIP peptide PIP peptide (from UniProt Q9UNA4) |  | 390 nM
